From paper PMC12655336, “Study on the High-Efficiency Expression of Horseradish Peroxidase in Pichia pastoris” (Molecules, 2025)

How the values were obtained:
purified protein = substrate: COc1ccccc1O; test: purified protein; settings: 1 mM H2O2, 37 °C, 436 nm
[1] = substrate: CCn1c(=NN=c2sc3cc(S(=O)(=O)O)ccc3n2CC)sc2cc(S(=O)(=O)O)ccc21; test: spectrophotometric oxidation, Michaelis-Menten fit; type: biochemical, Armoracia rusticana; settings: 1 mM H2O2, 37 °C, 415 nm, deglycosylated enzyme
Description: (§1) spectrophotometric oxidation, Michaelis-Menten fit on Degly-HRP

[2] = substrate: Cc1cc(-c2cc(C)c(N)c(C)c2)cc(C)c1N; test: spectrophotometric oxidation, Michaelis-Menten fit; type: biochemical, Armoracia rusticana; settings: 1 mM H2O2, 37 °C, 450 nm, deglycosylated enzyme
Description: as §1

[3] = substrate: Nc1ccccc1N; test: spectrophotometric oxidation, Michaelis-Menten fit; type: biochemical, Armoracia rusticana; settings: 1 mM H2O2, 37 °C, 492 nm, deglycosylated enzyme
Description: as §1

[4] = substrate: CCn1c(=NN=c2sc3cc(S(=O)(=O)O)ccc3n2CC)sc2cc(S(=O)(=O)O)ccc21; test: spectrophotometric oxidation, Michaelis-Menten fit; type: biochemical, Armoracia rusticana; settings: 1 mM H2O2, 37 °C, 415 nm, glycosylated enzyme
Description: (§2) spectrophotometric oxidation, Michaelis-Menten fit on HRP-C (W-HRP)

[5] = substrate: Nc1ccccc1N; test: spectrophotometric oxidation, Michaelis-Menten fit; type: biochemical, Armoracia rusticana; settings: 1 mM H2O2, 37 °C, 492 nm, glycosylated enzyme
Description: as §2

Row | Protein | Km (purified protein; deglycosylated enzyme) [µM] | kcat (purified protein; deglycosylated enzyme) [s⁻¹] | Km [1] [µM] | kcat [1] [s⁻¹] | Km [2] [µM] | kcat [2] [s⁻¹] | Km [3] [µM] | kcat [3] [s⁻¹] | kcat (purified protein; glycosylated enzyme) [s⁻¹] | Km [4] [µM] | kcat [4] [s⁻¹] | Km [5] [µM] | kcat [5] [s⁻¹]
1 | Degly-HRP (Armoracia rusticana) (protein, same HRP-C from Pichia pastoris GS115, His-tagged, Ni-NTA purified; deglycosylated with EndoH (O-glycans may remain)) QLTPTFYDNSCPNVSNIVRDTIVNELRSDPRIAASILRLHFHDCFVNGCDASILLDNTTSFRTEKDAFGNANSARGFPVIDRMKAAVESACPRTVSCADLLTIAAQQSVTLAGGPSWRVPLGRRDSLQAFLDLANANLPAPFFTLPQLKDSFRNVGLNRSSDLVALSGGHTFGKNQCRFIMDRLYNFSNTGLPDPTLNTTYLQTLRGLCPLNGNLSALVDFDLRTPTIFDNKYYVNLEEQKGLIQSDQELFSSPNATDTIPLVRSFANSTQTFFNAFVEAMDRMGNITPLTGTQGQIRLNCRVVNSNS | 20.59 | 270 | 45.35 | 238 | 96 | 238 | 41 | 745 |  |  |  |  | 
2 | HRP-C (W-HRP) (Armoracia rusticana) (protein, codon-optimised synthetic HRP-C gene, secreted from Pichia pastoris GS115 with MF4I signal peptide, His-tagged, Ni-NTA purified; glycosylated (not EndoH treated)) QLTPTFYDNSCPNVSNIVRDTIVNELRSDPRIAASILRLHFHDCFVNGCDASILLDNTTSFRTEKDAFGNANSARGFPVIDRMKAAVESACPRTVSCADLLTIAAQQSVTLAGGPSWRVPLGRRDSLQAFLDLANANLPAPFFTLPQLKDSFRNVGLNRSSDLVALSGGHTFGKNQCRFIMDRLYNFSNTGLPDPTLNTTYLQTLRGLCPLNGNLSALVDFDLRTPTIFDNKYYVNLEEQKGLIQSDQELFSSPNATDTIPLVRSFANSTQTFFNAFVEAMDRMGNITPLTGTQGQIRLNCRVVNSNS |  |  |  |  |  |  |  |  | 291 | 48.55 | 267 | 36 | 747
